According to PMC8316672 (Journal of Molecular Biology, 2021):

Target: SARS-CoV-2 RBD (residues 328–528), deglycosylated, His tag removed (crystallography) (SARS-CoV-2, UniProt P0DTC2)
Assay: crystal structure

B1: Fab 15033 (Fab, V domains shown)
VH: EVQLVESGGGLVQPGGSLRLSCAASGFDLGGYSMHWVRQAPGKGLEWVAGIYASGGATAYADSVKGRFTISADTSKNTAYLQMNSLRAEDTAVYYCARSYYYGGFGMDYWGQGTLVTVSS
VL: DIQMTQSPSSLSASVGDRVTITCRASQSVSSAVAWYQQKPGKAPKLLIYSASDLYSGVPSRFSGSRSGTDFTLTISSLQPEDFATYYCQQSYRYPITFGQGTKVEIK
B1: binds.

B2: Fab 15033-7 (Fab, V domains shown)
VH: EVQLVESGGGLVQPGGSLRLSCAASGFDLGGYSMHWVRQAPGKGLEWVAGIYASGGATAYADSVKGRFTISADTSKNTAYLQMNSLRAEDTAVYYCARSYYYGGFGMDYWGQGTLVTVSS
VL: DIQMTQSPSSLSASVGDRVTITCRASQSVSSAVAWYQQKPGKAPKLLIYSASDLYSGVPSRFSGSRSGTDFTLTISSLQPEDFATYYCQQSHTYPITFGQGTKVEIK
B2: binds.
